Assay results reported in article PMC9640981, “Plant vernalization proteins contain unusual PHD superdomains without histone H3 binding activity” (The Journal of Biological Chemistry, 2022).
“Also recorded” adds a separate entry of the source.

Legend:
[1] = test system: VIN3 PHD superdomain; test: Interaction of negatively charged polymers with VIN3 PHD superdomain (NMR and ITC, summary); type: binding, Phoenix dactylifera; conditions: listed as RNA
Description: ITC was carried out at 25 °C with an iTC 200 Microcalorimeter (GE Healthcare) in 25 mM Tris pH 8, 150 mM NaCl, and 1 mM DTT. Titrations consisted of 19 consecutive 2 μl injections of 0.25 to 1 mM peptide solution (following a preinjection of 0.5 μl) into 50 μM protein (VIN3PHD, VIN3_123-326, VIN3_116-307, OBE1_193-372, or pVP13 VIN3_130-299) at time intervals of 120 s. ITC data were analyzed using MicroCal PEAQ-IT Analysis Software (Malvern Sciences).
For NMR spectroscopy, A. thaliana VIN3_150-208 and P. dactilyfera VIN3_123-326 were expressed in M9 minimal medium supplemented with 0.4% glucose, antibiotics, trace elements, 25 ml overnight culture, and 2 g of ^15N-H4Cl per liter of expression culture. Cultures were grown and processed essentially as described before. NMR samples containing 50 μM ^15N-labeled VIN3_150-208 or VIN3_123-326 were prepared in aqueous buffer (25 mM Tris pH 8, 150 mM NaCl, and 1 mM DTT). The 50 μM ^15N-labeled VIN3_150-208 or VIN3_123-326 was incubated with 0.5 mM histone H3 peptides resuspended in 25 mM Tris pH 8, 150 mM NaCl, and 1 mM DTT for >30 min before measurement. Spectra were recorded on a Bruker Avance-III spectrometer operating at 600 MHz ^1H frequency and equipped with a 5 mm inverse detection cryogenic probe. BEST-TROSY shift correlation experiments ([45]) were acquired with 256 × 1024 points in t1 and t2, respectively. […]

[2] = test system: ^15N-labeled Pd VIN3_123-326; test: NMR (BEST-TROSY) interaction of negatively charged polymers with Pd VIN3 PHD superdomain; type: binding, Phoenix dactylifera
Description: For NMR spectroscopy, A. thaliana VIN3_150-208 and P. dactilyfera VIN3_123-326 were expressed in M9 minimal medium supplemented with 0.4% glucose, antibiotics, trace elements, 25 ml overnight culture, and 2 g of ^15N-H4Cl per liter of expression culture. Cultures were grown and processed essentially as described before. NMR samples containing 50 μM ^15N-labeled VIN3_150-208 or VIN3_123-326 were prepared in aqueous buffer (25 mM Tris pH 8, 150 mM NaCl, and 1 mM DTT). The 50 μM ^15N-labeled VIN3_150-208 or VIN3_123-326 was incubated with 0.5 mM histone H3 peptides resuspended in 25 mM Tris pH 8, 150 mM NaCl, and 1 mM DTT for >30 min before measurement. Spectra were recorded on a Bruker Avance-III spectrometer operating at 600 MHz ^1H frequency and equipped with a 5 mm inverse detection cryogenic probe. BEST-TROSY shift correlation experiments ([45]) were acquired with 256 × 1024 points in t1 and t2, respectively. Spectra were processed in TopSpin version 3.2 (Bruker), with linear prediction in t1, giving a digital resolution of 2.2 and 8.2 Hz/point in the processed data.
Generation of nucleic acid probes for NMR
FLC DNA was used as a template for the design of a dsDNA 60-mer probe, generated by annealing the sequence (5′ […] 3′) and its complementary oligonucleotide for 2 min at 95 °C. […]

B1: 63-mer RNA: FLC RNA transcript, 5′ GGGAAAGAGAAAACGCUUAGUAUCUCCGGCGACUUGAACCCAAACCUGAGGAUCAAAUUAGGG 3′ (nucleic acid)
chain: GGGAAAGAGAAAACGCUUAGUAUCUCCGGCGACUUGAACCCAAACCUGAGGAUCAAAUUAGGG
modifications: RNA, backbone not given here; further chemistry not fully specified
With B1 as the molecule, how does the “propensity for interaction with negatively charged polymers (in words)” value [1] read?
The value was “moderate propensity for interacting; also recorded: interact weakly; also recorded: can interact instead with negatively charged polymers”.

What about the “perturbation of BEST-TROSY spectrum (in words)” value ([2]; 50 μM ^15N-labeled VIN3_123-326, 4 μM 60-mer dsDNA or 63-mer RNA (Fig. 6A, B), ssDNA comparison E. F.-E., unpublished) of the same molecule?
The value was “produced perturbations of the same individual crosspeaks”.

And the “minimal concentration required to produce spectral perturbations” value ([2]; BEST-TROSY, 50 μM ^15N-labeled VIN3_123-326, 25 mM Tris pH 8, 150 mM NaCl, 1 mM DTT)?
The value was 2 µM.
